Experimental data reported in US20240352097A1 (NATIONAL SUN YAT SEN UNIVERSITY, published 2024).

T1: DENV-1 envelope (E) protein (Dengue virus serotype 1, UniProt P27909 281-680)
T1 chain: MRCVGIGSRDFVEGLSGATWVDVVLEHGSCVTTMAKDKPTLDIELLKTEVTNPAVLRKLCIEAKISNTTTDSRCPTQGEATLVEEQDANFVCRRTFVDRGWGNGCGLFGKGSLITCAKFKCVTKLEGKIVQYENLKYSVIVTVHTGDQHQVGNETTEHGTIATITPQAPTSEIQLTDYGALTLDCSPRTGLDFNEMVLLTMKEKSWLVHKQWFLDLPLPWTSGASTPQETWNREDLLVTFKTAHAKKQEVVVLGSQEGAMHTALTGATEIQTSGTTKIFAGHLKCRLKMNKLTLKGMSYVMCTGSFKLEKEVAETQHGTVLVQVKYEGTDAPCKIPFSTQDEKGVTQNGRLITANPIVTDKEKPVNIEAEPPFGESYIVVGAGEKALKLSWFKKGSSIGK

T2: JEV envelope (E) protein (Japanese encephalitis virus, UniProt P0DOH8 295-699)
T2 chain: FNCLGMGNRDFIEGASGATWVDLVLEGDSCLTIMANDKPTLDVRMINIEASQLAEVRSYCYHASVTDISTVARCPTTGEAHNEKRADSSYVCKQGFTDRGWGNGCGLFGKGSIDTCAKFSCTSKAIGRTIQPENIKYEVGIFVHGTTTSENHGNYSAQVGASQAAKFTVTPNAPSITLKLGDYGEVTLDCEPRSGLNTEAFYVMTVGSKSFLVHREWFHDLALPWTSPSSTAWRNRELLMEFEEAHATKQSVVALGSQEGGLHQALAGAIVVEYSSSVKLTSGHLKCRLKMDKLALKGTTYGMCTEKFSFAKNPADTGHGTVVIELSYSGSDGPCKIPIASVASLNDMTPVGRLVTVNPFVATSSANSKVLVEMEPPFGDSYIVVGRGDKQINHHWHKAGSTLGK

T3: DENV-3 envelope (E) protein (Dengue virus serotype 3, UniProt Q5UB51 281-678)
T3 chain: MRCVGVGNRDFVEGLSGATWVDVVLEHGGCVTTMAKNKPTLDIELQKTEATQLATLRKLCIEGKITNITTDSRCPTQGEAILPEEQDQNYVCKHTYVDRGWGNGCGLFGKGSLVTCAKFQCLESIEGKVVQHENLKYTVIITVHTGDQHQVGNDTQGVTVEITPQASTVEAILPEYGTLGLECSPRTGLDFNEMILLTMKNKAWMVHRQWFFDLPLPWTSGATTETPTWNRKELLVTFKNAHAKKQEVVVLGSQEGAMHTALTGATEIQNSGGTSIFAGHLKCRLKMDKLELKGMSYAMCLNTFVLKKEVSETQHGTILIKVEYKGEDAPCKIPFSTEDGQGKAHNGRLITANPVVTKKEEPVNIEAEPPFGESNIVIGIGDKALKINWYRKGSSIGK


How the values were obtained:
Test in all cases: cell-based or functional assay
[1] = target: T1, DENV-1 envelope (E) protein
[2] = target: DENV-4 envelope (E) protein (Dengue virus serotype 4, UniProt Q58HT7 280-679)
[3] = target: T2, JEV envelope (E) protein
[4] = target: DENV-2 envelope (E) protein (Dengue virus serotype 2, UniProt P29990 281-679)
[5] = target: T3, DENV-3 envelope (E) protein

Binder	neutralization (FRµNT50) [1] [µg/mL]	neutralization (FRµNT50) [2] [µg/mL]	neutralization (FRµNT50) [3] [µg/mL]	neutralization (FRµNT50) [4]	neutralization (FRµNT50) [5] [µg/mL]
K5-IgG1 (antibody, V domains shown) VH: EVQLLESGAEVKKPGSSVKVSCQASGDTFSNSDINWVRQAPGQGLEWMGGIIPAYDTTNYARTFQGRVAITADKSTSTVYMELSRLRSEDTAVYYCATDQRDYFGLGNHFNAQHFWGQGTLVTVSS VL: AIRMTQTPLSLSASVGDRVTITCRASQSISNYLNWYQQRPGKAPNLLIYTASNLHSGVPSRFSGSGSGTDFTLTISSLQPEDFATYYCQQSYSGGYTFGQGPSWEIK	0.771	1.51	0.682	0.215 µg/mL	1.21
K8b-IgG1 (antibody, V domains shown) VH: QVQLVQPGAEVVKPGASVKLSCKTSGYTFTSNWMHWVKQAPGQGLEWIGEIDPSDSYTNYNQNFQGKAKLTVDKSTSTAYMEVSSLRSDDTAVYYCARGSNPYYYAMDYWGQGTSVTVSS VL: EIVMMQSPLTLSLSPGERATLSCRASQSVSSNYLAWYQQRPGQAPRLLIYGVSSRATGVPVRFSGSGSGTDFTLTISRLEPEDFAVYYCQHYGGSLSWTFGQGTKVEIK	–	–	–	0.207 µg/mL	–
K8b-F(ab) (Fab, V domains shown) VH: QVQLVQPGAEVVKPGASVKLSCKTSGYTFTSNWMHWVKQAPGQGLEWIGEIDPSDSYTNYNQNFQGKAKLTVDKSTSTAYMEVSSLRSDDTAVYYCARGSNPYYYAMDYWGQGTSVTVSS VL: EIVMMQSPLTLSLSPGERATLSCRASQSVSSNYLAWYQQRPGQAPRLLIYGVSSRATGVPVRFSGSGSGTDFTLTISRLEPEDFAVYYCQHYGGSLSWTFGQGTKVEIKR	–	–	–	37 nM	–
